What was measured:
[1] = target: T1, Adeno-associated virus 8 (AAV8) virion (adeno-associated virus 8); test: co-IP/LC-MS/MS, AAV8 + human serum vs PBS control
T1 construct: Intact virion with packaged vector genome; capsid of 60 subunits (VP1, VP2, VP3, overlapping products of one cap gene); also called AAV8/luc; AAV8 capsid

[2] = target: T2, Adeno-associated virus 9 (AAV9) virion (adeno-associated virus 9); test: co-IP with ADK9/LC-MS/MS, AAV9 + human serum vs control
T2 construct: Intact virion; capsid of VP1, VP2, VP3; also called AAV9/luc; AAV9 capsid

[3] = target: T2, Adeno-associated virus 9 (AAV9) virion; test: as above; remark: listed apart in the source

B1: Fibrinogen alpha chain (other)
chain: GPRVVERHQSACKDSDWPFCSDEDWNYKCPSGCRMKGLIDEVNQDFTNRINKLKNSLFEYQKNNKDSHSLTTNIMEILRGDFSSANNRDNTYNRVSEDLRSRIEVLKRKVIEKVQHIQLLQKNVRAQLVDMKRLEVDIDIKIRSCRGSCSRALAREVDLKDYEDQQKQLEQVIAKDLLPSRDRQHLPLIKMKPVPDLVPGNFKSQLQKVPPEWKALTDMPQMRMELERPGGNEITRGGSTSYGTGSETESPRNPSSAGSWNSGSSGPGSTGNRNPGSSGTGGTATWKPGSSGPGSTGSWNSGSSGTGSTGNQNPGSPRPGSTGTWNPGSSERGSAGHWTSESSVSGSTGQWHSESGSFRPDSPGSGNARPNNPDWGTFEEVSGNVSPGTRREYHTEKLVTSKGDKELRTGKEKVTSGSTTTTRRSCSKTVTKTVIGPDGHKEVTKEVVTSEDGSDCPEAMDLGTLSGIGTLDGFRHRHPDEAAFFDTASTGKTFPGFFSPMLGEFVSETESRGSESGIFTNTKESSSHHPGIAEFPSRGKSSSYSKQFTSSTSYNRGDSTFESKSYKMADEAGSEADHEGTHSTKRGHAKSRPVRDCDDVLQTHPSGTQSGIFNIKLPGSSKIFSVYCDQETSLGGWLLIQQRMDGSLNFNRTWQDYKRGFGSLNDEGEGEFWLGNDYLHLLTQRGSVLRVELEDWAGNEAYAEYHFRVGSEAEGYALQVSSYEGTAGDALIEGSVEEGAEYTSHNNMQFSTFDRDADQWEENCAEVYGGGWWYNNCQAANLNGIYYPGGSYDPRNNSPYEIENGVVWVSFRGADYSLRAVRMKIRPLVTQ
notes: from human serum, identified by MS; also called FGA
[1]
  fold change: 1.75 fold
[2]
  fold change: 1.75 fold
[3]
  Fold increase: 4.95 fold

B2: Fibrinogen beta chain (other)
chain: GHRPLDKKREEAPSLRPAPPPISGGGYRARPAKAAATQKKVERKAPDAGGCLHADPDLGVLCPTGCQLQEALLQQERPIRNSVDELNNNVEAVSQTSSSSFQYMYLLKDLWQKRQKQVKDNENVVNEYSSELEKHQLYIDETVNSNIPTNLRVLRSILENLRSKIQKLESDVSAQMEYCRTPCTVSCNIPVVSGKECEEIIRKGGETSEMYLIQPDSSVKPYRVYCDMNTENGGWTVIQNRQDGSVDFGRKWDPYKQGFGNVATNTDGKNYCGLPGEYWLGNDKISQLTRMGPTELLIEMEDWKGDKVKAHYGGFTVQNEANKYQISVNKYRGTAGNALMDGASQLMGENRTMTIHNGMFFSTYDRDNDGWLTSDPRKQCSKEDGGGWWYNRCHAANPNGRYYWGGQYTWDMAKHGTDDGVVWMNWKGSWYSMRKMSMKIRPFFPQQ
notes: also called FGB
[1]
  fold change: 1.43 fold
[2]
  fold change: 1.43 fold
[3]
  Fold increase: 4.97 fold

B3: Fibrinogen gamma chain (other)
chain: YVATRDNCCILDERFGSYCPTTCGIADFLSTYQTKVDKDLQSLEDILHQVENKTSEVKQLIKAIQLTYNPDESSKPNMIDAATLKSRKMLEEIMKYEASILTHDSSIRYLQEIYNSNNQKIVNLKEKVAQLEAQCQEPCKDTVQIHDITGKDCQDIANKGAKQSGLYFIKPLKANQQFLVYCEIDGSGNGWTVFQKRLDGSVDFKKNWIQYKEGFGHLSPTGTTEFWLGNEKIHLISTQSAIPYALRVELEDWNGRTSTADYAMFKVGPEADKYRLTYAYFAGGDAGDAFDGFDFGDDPSDKFFTSHNGMQFSTWDNDNDKFEGNCAEQDGSGWWMNKCHAGHLNGVYYQGGTYSKASTPNGYDNGIIWATWKTRWYSMKKTTMKIIPFNRLTIGEGQQHHLGGAKQVRPEHPAETEYDSLYPEDDL
notes: also called FGG
[1]
  fold change: 1.6 fold
[2]
  fold change: 1.6 fold
[3]
  Fold increase: 4.85 fold

B4: Plasminogen (other)
chain: EPLDDYVNTQGASLFSVTKKQLGAGSIEECAAKCEEDEEFTCRAFQYHSKEQQCVIMAENRKSSIIIRMRDVVLFEKKVYLSECKTGNGKNYRGTMSKTKNGITCQKWSSTSPHRPRFSPATHPSEGLEENYCRNPDNDPQGPWCYTTDPEKRYDYCDILECEEECMHCSGENYDGKISKTMSGLECQAWDSQSPHAHGYIPSKFPNKNLKKNYCRNPDRELRPWCFTTDPNKRWELCDIPRCTTPPPSSGPTYQCLKGTGENYRGNVAVTVSGHTCQHWSAQTPHTHNRTPENFPCKNLDENYCRNPDGKRAPWCHTTNSQVRWEYCKIPSCDSSPVSTEQLAPTAPPELTPVVQDCYHGDGQSYRGTSSTTTTGKKCQSWSSMTPHRHQKTPENYPNAGLTMNYCRNPDADKGPWCFTTDPSVRWEYCNLKKCSGTEASVVAPPPVVLLPDVETPSEEDCMFGNGKGYRGKRATTVTGTPCQDWAAQEPHRHSIFTPETNPRAGLEKNYCRNPDGDVGGPWCYTTNPRKLYDYCDVPQCAAPSFDCGKPQVEPKKCPGRVVGGCVAHPHSWPWQVSLRTRFGMHFCGGTLISPEWVLTAAHCLEKSPRPSSYKVILGAHQEVNLEPHVQEIEVSRLFLEPTRKDIALLKLSSPAVITDKVIPACLPSPNYVVADRTECFITGWGETQGTFGAGLLKEAQLPVIENKVCNRYEFLNGRVQSTELCAGHLAGGTDSCQGDSGGPLVCFEKDKYILQGVTSWGLGCARPNKPGVYVRVSRFVTWIEGVMRNN
notes: also called PLG; PMG
[1]
  fold change: 1.48 fold
[2]
  fold change: 1.48 fold
[3]
  Fold increase: 3.23 fold

Source: patent EP4707292A2 (The University of North Carolina at Chapel Hill, dated 2026)
